Assay results taken from the supplement of paper PMC9112550, “Optimization of the antimicrobial peptide Bac7 by deep mutational scanning” (BMC Biology, 2022).

Tested on: Escherichia coli TOP10
Experiment: shrunken log2 fold change of peptide-encoding DNA abundance (4.5 h post-induction vs induction); higher = less antimicrobial activity (less host growth inhibition)
Details: time post-induction: 4.5 h; library: site-saturation at positions 5, 18, 19, 20
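Also: peptides expressed intracellularly from a pBAD plasmid library in pooled LB shake-flask culture, induced with 0.3% L-arabinose, DNA abundance read by NGS, three biological replicates, DESeq2 with apeglm shrinkage.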

In order of rising “shrunken log2 fold change” value:
1. RRIRYRPPRLPRPRPRPNRNPRP  -1
2. RRIRHRPPRLPRPRPRPSDIPRP  -0.978
3. RRIRVRPPRLPRPRPRPYMGPRP  -0.895
4. RRIRCRPPRLPRPRPRPMIMPRP  -0.854
5. RRIRCRPPRLPRPRPRPCLHPRP  -0.824
6. RRIRCRPPRLPRPRPRPYEYPRP  -0.769
7. RRIRIRPPRLPRPRPRPDFNPRP  -0.701
8. RRIRYRPPRLPRPRPRPIITPRP  -0.667
9. RRIRNRPPRLPRPRPRPEHNPRP  -0.486
10. RRIRVRPPRLPRPRPRPLVIPRP  -0.429
11. RRIRIRPPRLPRPRPRPSCTPRP  -0.407
12. RRIRGRPPRLPRPRPRPSKGPRP  -0.403
13. RRIRMRPPRLPRPRPRPLLIPRP  -0.397
14. RRIRSRPPRLPRPRPRPQEKPRP  -0.393
15. RRIRFRPPRLPRPRPRPRYIPRP  -0.392
16. RRIRQRPPRLPRPRPRPTVHPRP  -0.367
17. RRIRMRPPRLPRPRPRPYSDPRP  -0.329
18. RRIRCRPPRLPRPRPRPFPEPRP  -0.312
19. RRIRHRPPRLPRPRPRPFCVPRP  -0.312
20. RRIRQRPPRLPRPRPRPDFYPRP  -0.288
21. RRIRSRPPRLPRPRPRPRVLPRP  -0.285
22. RRIRVRPPRLPRPRPRPFIVPRP  -0.285
23. RRIRVRPPRLPRPRPRPYMCPRP  -0.274
24. RRIRHRPPRLPRPRPRPPTDPRP  -0.254
25. RRIRVRPPRLPRPRPRPYYSPRP  -0.235
26. RRIRNRPPRLPRPRPRPPTCPRP  -0.221
27. RRIRTRPPRLPRPRPRPYADPRP  -0.22
28. RRIRWRPPRLPRPRPRPFRDPRP  -0.196
29. RRIRYRPPRLPRPRPRPYAEPRP  -0.193
30. RRIRWRPPRLPRPRPRPLKDPRP  -0.178
31. RRIRERPPRLPRPRPRPNLTPRP  -0.171
32. RRIRSRPPRLPRPRPRPKDVPRP  -0.162
33. RRIRQRPPRLPRPRPRPFHNPRP  -0.152
34. RRIRTRPPRLPRPRPRPTMFPRP  -0.148
35. RRIRLRPPRLPRPRPRPMHSPRP  -0.13
36. RRIRTRPPRLPRPRPRPHICPRP  -0.13
37. RRIRKRPPRLPRPRPRPHLMPRP  -0.129
38. RRIRIRPPRLPRPRPRPGILPRP  -0.128
39. RRIRLRPPRLPRPRPRPLCQPRP  -0.125
40. RRIRRRPPRLPRPRPRPIVIPRP  -0.125
41. RRIRIRPPRLPRPRPRPEQCPRP  -0.122
42. RRIRHRPPRLPRPRPRPWLMPRP  -0.12
43. RRIRKRPPRLPRPRPRPNKCPRP  -0.106
44. RRIRFRPPRLPRPRPRPFEAPRP  -0.105
45. RRIRFRPPRLPRPRPRPWFDPRP  -0.101
46. RRIRFRPPRLPRPRPRPCEGPRP  -0.086
47. RRIRNRPPRLPRPRPRPIPTPRP  -0.0847
48. RRIRKRPPRLPRPRPRPIIHPRP  -0.0792
49. RRIRERPPRLPRPRPRPMMTPRP  -0.067
50. RRIRPRPPRLPRPRPRPSFPPRP  -0.0649
51. RRIRWRPPRLPRPRPRPIKIPRP  -0.0625
52. RRIRPRPPRLPRPRPRPMPLPRP  -0.0538
53. RRIRFRPPRLPRPRPRPHREPRP  -0.0534
54. RRIRCRPPRLPRPRPRPKADPRP  -0.052
55. RRIRMRPPRLPRPRPRPLYHPRP  -0.0416
56. RRIRVRPPRLPRPRPRPMDCPRP  -0.0385
57. RRIRTRPPRLPRPRPRPYSQPRP  -0.0274
58. RRIRKRPPRLPRPRPRPMERPRP  -0.024
59. RRIRPRPPRLPRPRPRPWRYPRP  -0.0238
60. RRIRPRPPRLPRPRPRPWFGPRP  -0.0238
61. RRIRIRPPRLPRPRPRPMPIPRP  -0.0218
62. RRIRGRPPRLPRPRPRPITPPRP  -0.0185
63. RRIRDRPPRLPRPRPRPTEGPRP  -0.0161
64. RRIRLRPPRLPRPRPRPNWVPRP  -0.0131
65. RRIRHRPPRLPRPRPRPEACPRP  -0.0115
66. RRIRRRPPRLPRPRPRPHRSPRP  -0.00354
67. RRIRIRPPRLPRPRPRPDLSPRP  -0.000521
68. RRIRNRPPRLPRPRPRPKFRPRP  0.00344
69. RRIRRRPPRLPRPRPRPGTKPRP  0.0056
70. RRIRTRPPRLPRPRPRPCEWPRP  0.013
71. RRIRVRPPRLPRPRPRPMVGPRP  0.0148
72. RRIRTRPPRLPRPRPRPRLYPRP  0.0155
73. RRIRHRPPRLPRPRPRPASAPRP  0.0183
74. RRIRFRPPRLPRPRPRPELDPRP  0.0203
75. RRIRDRPPRLPRPRPRPDKKPRP  0.0252
76. RRIRSRPPRLPRPRPRPHQGPRP  0.0275
77. RRIRERPPRLPRPRPRPWLQPRP  0.0293
78. RRIRRRPPRLPRPRPRPPWGPRP  0.0337
79. RRIRARPPRLPRPRPRPVYDPRP  0.0386
80. RRIRHRPPRLPRPRPRPNHGPRP  0.0424
81. RRIRRRPPRLPRPRPRPFSVPRP  0.0458
82. RRIRLRPPRLPRPRPRPDVQPRP  0.0463
83. RRIRYRPPRLPRPRPRPFKFPRP  0.0599
84. RRIRHRPPRLPRPRPRPLDTPRP  0.0608
85. RRIRSRPPRLPRPRPRPTCVPRP  0.0671
86. RRIRARPPRLPRPRPRPTFNPRP  0.0685
87. RRIRWRPPRLPRPRPRPFFYPRP  0.0746
88. RRIRSRPPRLPRPRPRPVDAPRP  0.0786
89. RRIRDRPPRLPRPRPRPPTNPRP  0.0808
90. RRIRSRPPRLPRPRPRPVKVPRP  0.0828
91. RRIRNRPPRLPRPRPRPSPAPRP  0.0876
92. RRIRTRPPRLPRPRPRPLGAPRP  0.0945
93. RRIRPRPPRLPRPRPRPGKEPRP  0.0995
94. RRIRTRPPRLPRPRPRPAIGPRP  0.1
95. RRIRRRPPRLPRPRPRPDKWPRP  0.107
96. RRIRCRPPRLPRPRPRPQAGPRP  0.109
97. RRIRHRPPRLPRPRPRPPEPPRP  0.113
98. RRIRMRPPRLPRPRPRPCWMPRP  0.114
99. RRIRNRPPRLPRPRPRPAWKPRP  0.122
100. RRIRYRPPRLPRPRPRPVLRPRP  0.124
101. RRIRERPPRLPRPRPRPALMPRP  0.129
102. RRIRIRPPRLPRPRPRPTASPRP  0.132
103. RRIRIRPPRLPRPRPRPAACPRP  0.156
104. RRIRERPPRLPRPRPRPEARPRP  0.164
105. RRIRLRPPRLPRPRPRPMQFPRP  0.179
106. RRIRLRPPRLPRPRPRPMRHPRP  0.188
107. RRIRFRPPRLPRPRPRPAKRPRP  0.21
108. RRIRKRPPRLPRPRPRPKNAPRP  0.216
109. RRIRRRPPRLPRPRPRPNGTPRP  0.219
110. RRIRKRPPRLPRPRPRPSQRPRP  0.231
111. RRIRLRPPRLPRPRPRPRRQPRP  0.234
112. RRIRFRPPRLPRPRPRPVPQPRP  0.261
113. RRIRTRPPRLPRPRPRPAHDPRP  0.268
114. RRIRRRPPRLPRPRPRPSCWPRP  0.285
115. RRIRWRPPRLPRPRPRPQSRPRP  0.299
116. RRIRWRPPRLPRPRPRPRISPRP  0.305
117. RRIRPRPPRLPRPRPRPGKPPRP  0.306
118. RRIRWRPPRLPRPRPRPRFTPRP  0.307
119. RRIRERPPRLPRPRPRPTPHPRP  0.308
120. RRIRMRPPRLPRPRPRPEHHPRP  0.323
121. RRIRARPPRLPRPRPRPPGIPRP  0.331
122. RRIRGRPPRLPRPRPRPGTLPRP  0.351
123. RRIRGRPPRLPRPRPRPDWNPRP  0.361
124. RRIRPRPPRLPRPRPRPKAAPRP  0.386
125. RRIRLRPPRLPRPRPRPPWCPRP  0.402
126. RRIRRRPPRLPRPRPRPMPDPRP  0.442
127. RRIRMRPPRLPRPRPRPTYDPRP  0.473
128. RRIRTRPPRLPRPRPRPTGDPRP  0.475
129. RRIRWRPPRLPRPRPRPTPVPRP  0.49
130. RRIRKRPPRLPRPRPRPGKIPRP  0.494
131. RRIRLRPPRLPRPRPRPAPHPRP  0.514
132. RRIRPRPPRLPRPRPRPRTSPRP  0.59
133. RRIRPRPPRLPRPRPRPARGPRP  0.606
134. RRIRWRPPRLPRPRPRPPKGPRP  0.61
135. RRIRARPPRLPRPRPRPAHPPRP  0.653
136. RRIRWRPPRLPRPRPRPIWPPRP  0.684
137. RRIRARPPRLPRPRPRPLACPRP  0.695
138. RRIRGRPPRLPRPRPRPSNDPRP  0.702
139. RRIRQRPPRLPRPRPRPVRFPRP  0.728
140. RRIRMRPPRLPRPRPRPDLKPRP  0.751
141. RRIRTRPPRLPRPRPRPTRTPRP  0.767
142. RRIRGRPPRLPRPRPRPGAFPRP  0.773
143. RRIRGRPPRLPRPRPRPAPSPRP  0.806
144. RRIRLRPPRLPRPRPRPTRPPRP  0.828
145. RRIRGRPPRLPRPRPRPLLWPRP  0.896
146. RRIRARPPRLPRPRPRPAPGPRP  0.972
147. RRIRCRPPRLPRPRPRPPPNPRP  1.27
148. RRIRDRPPRLPRPRPRPECDPRP  1.39
149. RRIRARPPRLPRPRPRPDDQPRP  1.41
150. RRIRWRPPRLPRPRPRPQRVPRP  2.3
